{"source": "paper PMC6286126", "about": "“A novel pathway of LPS uptake through syndecan-1 leading to pyroptotic cell death” (eLife, 2018)", "proteins": {"B1": {"name": "recombinant human SCGB3A2 (C1) (natural protein, UniProt Q96PL1 22-93, looked up)", "chain": "FLINKVPLPVDKLAPLPLDNILPFMDPLKLLLKTLGISVEHLVEGLRKCVNELGPEASEAVKKLLEALSHLV", "notes": "recombinant human SCGB3A2, lot C1; also called hS2; source: recombinant; in house (APCBio Innovations), Cai et al., 2014"}}, "molecular_target": "the molecule itself", "assay": "native gel or EMSA; human SCGB3A2 10 µg on 0.8% agarose gel in TAE, Coomassie Brilliant Blue staining of the gel"}
{"protein": "B1", "values": [{"measurement": "binding result", "value": "binds"}]}
